Results published in PMC11539623 (Biochimica et biophysica acta. Gene regulatory mechanisms, 2023).

Biological target: T1, His-tagged full length Taf14 (S. cerevisiae, UniProt P35189 1-244, labeled with His-Tag Labeling Kit RED-tris-NTA (2nd Generation))
T1 sequence (looked up): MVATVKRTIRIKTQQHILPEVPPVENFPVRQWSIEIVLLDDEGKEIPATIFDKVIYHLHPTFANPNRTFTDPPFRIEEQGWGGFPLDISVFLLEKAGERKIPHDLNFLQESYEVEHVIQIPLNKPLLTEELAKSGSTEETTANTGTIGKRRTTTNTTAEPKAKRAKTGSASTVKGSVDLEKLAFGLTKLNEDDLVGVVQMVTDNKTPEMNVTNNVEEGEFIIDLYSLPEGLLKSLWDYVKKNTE
Assay: MST

B1: Snf5 ET domain binding motif peptide (aa 782-793) (peptide, UniProt P18480 782-793, looked up)
peptide: GHSLLLSIKLPG
fold weaker binding than the isolated Taf14ET: 7 fold
